Patent publication US6721663B1, “Method for manipulating protein or DNA sequence data in order to generate complementary peptide ligands” (Proteom Limited, priority 1999, dated 2004)

What was measured:
[1] = target: IL-1b (Homo sapiens, UniProt P01584); assay: ESAP assay of IL-1b biological activity; assay type: cell-based; conditions: FIG. 14
Source text: (§1) The program picked out antisense region LITVLNI (SEQ ID No. 8) in the IL-1R receptor.

[2] = target: T1, IL-1 (Homo sapiens, UniProt P01584); assay: Direct binding to IL-1 by biosensing techniques
Source text: as §1

[3] = target: T1, IL-1; assay: Serum Amyloid IL-1 assay; assay type: cell-based; conditions: FIG. 14
Source text: as §1

T1 sequence (P01584 117-269): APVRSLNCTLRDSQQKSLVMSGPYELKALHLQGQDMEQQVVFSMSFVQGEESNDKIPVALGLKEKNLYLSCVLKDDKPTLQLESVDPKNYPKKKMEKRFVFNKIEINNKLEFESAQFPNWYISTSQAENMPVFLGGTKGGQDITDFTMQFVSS
Chain of IL-1b (P01584 117-269): as above

| direct binding to IL-1 [2] | inhibition of IL-1 activity in Serum Amyloid IL-1 assay [3] | Substance | inhibition of the biological activity of IL-1b in ESAP assay [1] |
| --- | --- | --- | --- |
| bind directly to IL-1 | The same effect is also seen | LITVLNI (listed as Homo sapiens) [antisense region in the IL-1R receptor picked out by the ALS program] | inhibit the biological activity of IL-1b |
|  |  | LTILINV (Hypothetical sequence) [scrambled peptide control of LITVLNI, reference compound] | The effect is dependent on the peptide sequence |
